Measurements: patent US20240109937A1, “BINDING PEPTIDES AND USES THEREOF” (The Johns Hopkins University, priority 2021, published 2024)

Columns and labels:
[1] = target: T1, Peptidylprolyl isomerase A (PPIA), also known as cyclophilin A (CypA), P62937; assay: printed as 'Disrupts the complex AIF/Cyclophilin with a KD'; method not stated
[2] = target: T1, Peptidylprolyl isomerase A (PPIA), also …; assay: method not stated; told in the description of FIG. 20

T1 sequence (P62937 whole entry): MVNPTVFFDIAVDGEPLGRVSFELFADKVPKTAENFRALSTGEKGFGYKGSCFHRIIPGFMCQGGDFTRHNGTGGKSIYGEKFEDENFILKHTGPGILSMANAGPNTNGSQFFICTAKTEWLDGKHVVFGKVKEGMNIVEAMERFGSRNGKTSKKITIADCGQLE

B1: TAT-AIF (370-394) (peptide)
peptide: GRKKRRQRRRAQSVGVSSGKLLIKLKDGRKVETDHI
modifications: not checked
- Kd [1]: 5 µM
- Kd [2]: 12 µM
